Laboratory results published in the supplement of paper PMC9732359.
± gives the uncertainty stated by the source.

test: protein stability index of a GFP-peptide fusion (yeast GPS) (PSI 1-4); higher = more stable; sorted into four equal gates, so the index is relative within each strain; conditions: san1∆
How it was run: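 The protein stability index of a peptide was calculated by multiplying its read frequency in each gate by that gate's number and adding the products. The peptides were tiled 17-residue stretches of yeast proteins, fused downstream of GFP on a Cherry-expressing plasmid and carried in yeast as a pooled library. Mid-log cultures in leucine-free medium were sorted into four equal gates by GFP/Cherry ratio, and each gate's plasmids were PCR-amplified and Illumina-sequenced.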

Sequence	protein stability index
SADPSLLIDQFSPVISQ [SWI1]	2.51 ± 0.18

same assay, conditions: ubr1∆

Sequence	protein stability index
RAVFLFRCKETHSYNFM [RPC82]	2.47 ± 0.063
RAVGGEVGASAALAPKI [RPL12A]	3.2 ± 0.1
RAYLSHSNRCIVFSKKE [CSN12]	1.15 ± 0.036
RCLVAVIQQDKYQKALH [SRP72]	2.09 ± 0.13
RDDLFVRNLQGIQEVVH [NUT1]	3.23 ± 0.068
RDLILKKGEYARFKSKD [SMC3]	2.77 ± 0.076
REDLNKAEYVDQYDAER [RPO31]	3.34 ± 0.083
REFLKVDQEMLYEIILA [SKP1]	2.96 ± 0.051
REHERVILKQILQILDQ [SWP82]	2.8 ± 0.046
REHFEKTVAVDSVFEQN [RPL3]	2.37 ± 0.12
REIVMPAHTKYMLIEEA [ITC1]	3.31 ± 0.13
RELYKYVRKHDPLNSNI [PRP28]	3.16 ± 0.09
REQASKSKKSWLNRLNN [YMR153W/NUP53]	2.92 ± 0.063
RESTKALTRGEALLVVL [RPS12]	3.4 ± 0.045
REVGTKFTTVLAKILAR [ECM29]	1.44 ± 0.05
RFAPDNQVTDSSQLNKL [SIR3]	3.04 ± 0.14
RFNFISKYFIIDSFFLY [YMR129W/POM152]	1.12 ± 0.059
RFQDPYVAIVVDPLKSL [RRI1]	2.69 ± 0.13
RGFNNQIMQLKKICNHP [SNF2]	3.2 ± 0.06
RGKDCTVVISQKKVPDK [SCL1]	2.71 ± 0.051
RGRNDTLERVHLSYCSN [GRR1]	2.98 ± 0.046
RHQQLLRSRLQQQQQQQ [SNF5]	2.67 ± 0.072
RIFISNVSENQPWQMDT [SNF12]	3.11 ± 0.054
RIGRIEDVTPVPSDSTR [RPS14A]	3.16 ± 0.052
RIIREMFAYAKEHEPCI [RPT4]	2.58 ± 0.093
RIKNEQSALSQIIRLFY [ISW2]	3.06 ± 0.073

Sequence	protein stability index
RIQKIISKRKEELEEEF [YIL149C/MLP2]	2.86 ± 0.13
RKDLRDKLICSIDPPGC [DIS3]	3.03 ± 0.051
RKEGPTIYYVDSDGTRL [PRE2]	2.32 ± 0.034
RKHPGGRGMAGGQHHHR [RPL28]	3.18 ± 0.16
RKIEAETRNGKVKNQGA [YCS4]	3.22 ± 0.13
RKIEFPSLRDRRERRLI [RPT3]	3.32 ± 0.042
RKIGISIDDHPYNLNLF [RPC31]	1.9 ± 0.044
RKILNFKKDLVIVLSNI [SWI1]	2.71 ± 0.087
RKKTEAVARLKSMNKSA [SNF2]	2.08 ± 0.065
RKNYMHVKNFGFANSLT [YML031W/NDC1]	2.85 ± 0.063
RKSDQQDVLKGSSASSR [POP1]	3.31 ± 0.096
RKSVFAPLNFNPIIENN [SSN2]	2.71 ± 0.069
RKVVKPSSLNSDKIPYV [SRB4]	3.23 ± 0.12
RLAAPHHWLLDKLSGCY [RPS4A]	2.35 ± 0.15
RLEEESSWQIYSDENDP [RRP4]	3.53 ± 0.16
RLFNNVKIHSQESLLSR [SRP72]	2.18 ± 0.044
RLGSFTRAKAKVEEMNN [RPL36A]	2.87 ± 0.28
RLLPINVNKKALGQDTE [MED11]	3.16 ± 0.052
RLNFNQNSSKIVNVLSK [SWI3]	2.93 ± 0.042
RLPTFLKHKSICSCVNR [RPP1]	2.83 ± 0.08
RLRALQLYFQKNGAQDL [RRI2]	2.44 ± 0.044
RLTVSARDAPTKISTLA [QCR2]	3.19 ± 0.055
RLWHTLKYYQDLKNTRM [SNF5]	1.7 ± 0.051
RMMGCVKKQKSARGIET [FAS2]	1.48 ± 0.064
RMRLRALETENMEIRNL [GRR1]	3.04 ± 0.041
RMSIKLLRLASKSTSMK [POP1]	2.56 ± 0.04

Sequence	protein stability index
RMTIRTRGRSATIRETY [RRP43]	2.2 ± 0.049
RNNHNSNTSTSKMLDAA [SNF12]	3.01 ± 0.048
RNNSNNKTSNNNNVTAV [SWI1]	2.81 ± 0.044
RNPARLMETLRTLRRKG [RPB2]	2.87 ± 0.13
RNSFIRDMIMKRNSDKV [ITC1]	2.83 ± 0.2
RNSLETKLTTCKRELAF [YIL149C/MLP2]	2.19 ± 0.053
RNVVEDINQAKDFIENV [BRN1]	3.25 ± 0.072
RPTGGANMATVPSTTNV [MED6]	2.91 ± 0.04
RQCFREKANDIGFNKFR [RPS29A]	2.92 ± 0.098
RQELQMQRQQQGISGSQ [SNF2]	2.9 ± 0.041
RQFLHELRRPGVDNLRR [RPO31]	1.64 ± 0.093
RQLSPHTLMSFAGEAGD [PRE1]	1.96 ± 0.041
RQQQQRSILQSLNPALQ [SWI1]	1.89 ± 0.053
RRANFYKENEAMLRENI [SNF12]	3.39 ± 0.11
RREVQIQLQEFLLSAMT [NSL1]	1.68 ± 0.063
RRLHKVLRPFLLRRLKK [SNF2]	2.53 ± 0.07
RRLLNLYNDNNKNNNNR [SWI1]	2.99 ± 0.058
RRNRYKTYYGIHCLAVR [RPN7]	1.17 ± 0.044
RRVKQLDDITDSNTTEI [SIR4]	3 ± 0.065
RSGALIKFKKCDGDTVW [SSN2]	2.71 ± 0.043
RSLCEVLVYDDKLEKVT [RPC34]	2.84 ± 0.093
RSLDENRLEIKYHNDLI [SMC1]	3.14 ± 0.24
RSLGLQQVVCIFSYGPH [POP6]	1.64 ± 0.026
RSMIEHARTAAVTHNLY [PUP2]	2.67 ± 0.083
RSNQYQRGKMHGLKQLR [NUT2]	1.74 ± 0.076
RSNTGALMRCSFEETVE [RPO21]	3.01 ± 0.067

Sequence	protein stability index
RSPLVTPMDESSYDLLF [SRP72]	3.2 ± 0.08
RSQISEKDAKINKLMEK [SIR4]	2.27 ± 0.047
RSRISSPHGLINLNVDD [SRB4]	2.15 ± 0.043
RSSEEINSDNQNIILRS [RPN3]	3.2 ± 0.19
RSTMMKFLKIASLKHDN [RPN3]	3.01 ± 0.057
RSTRIRTKSQVIEEDYD [IRR1]	3.43 ± 0.11
RTPYLTSLKKIKDEIDD [SWI1]	2.62 ± 0.079
RTQPWSIMPDLYFYRNP [RPS0B]	2.6 ± 0.055
RVEPETFEIPQAHEIVI [SWI3]	2.94 ± 0.05
RVGGGGTGRSGQGAFGN [RPL4A]	3.34 ± 0.1
RVNKNAPAVELHGNAKK [FAS2]	2.93 ± 0.058
RVVYLKHLEDNTLLISG [RPL6A]	2.23 ± 0.059
RWKRFTIGAIFLNHAFD [CDC53]	1.53 ± 0.048
RYANKRFRKAQCPIIER [RPS5]	1.5 ± 0.054
RYDSNSGGEREIQRTML [RPT2]	3.38 ± 0.1
RYDYSDEVGRRSMLTVV [YCG1]	1.97 ± 0.05
RYNVEKVKRLMDFLEED [NSL1]	2.25 ± 0.19
RYQHLEKITQISLLCKN [PCI8]	1.22 ± 0.048
RYRVDLLNTDHTLDPSL [RPO21]	2.9 ± 0.062
SAAATPSLNKTINGKVN [GAL11]	3.01 ± 0.046
SAAKYKDMKLLRYYKNI [NUT1]	1.99 ± 0.04
SADAPNPNNVNVQTQYR [RET1]	2.79 ± 0.05
SADPSLLIDQFSPVISQ [SWI1]	2.96 ± 0.067
